B1: serpin BsZx (natural protein)
chain: MATTDIRLSIAHQTRFAVRLASAISSPSHAKGSSGNAAFSPLSLHVALSLVAAGAAATRDQLAATLGAAEKGDAEGLHALAEQVVQVVLADASGAGGPRSFANVFVDSSLKLKPSFKDLVVGKYKGETQSVDFQTKAPEVAGQVNSWVEKITTGLIKEILPAGSVDSTTRLVLGNALYFKGSWTEKFDASKTKDEKFHLLDGSSVQTPFMSSTKKQYISSYDSLKVLKLPYQQGGDKRQFSMYILLPEAQDGLWNLANKLSTEPEFMEKHMPMQKVPVGQFKLPKFKISFGFEASDMLKGLGLQLPFSSEADLSEMVDSPAARSLYVSSVFHKSFVEVNEEGTEAAARTARVVTLRSLPVEPVKVDFVADHPFLFLIREDLTGVVLFVGHVFNPLVSA
B2: serpin Z4 (natural protein)
chain: MATTLATDVRLSIAHQTRFALRLRSAISSNPERAAGNVAFSPLSLHVALSLITAGAAATRDQLVAILGDGGAGDAKELNALAEQVVQFVLANESSTGGPRIAFANGIFVDASLSLKPSFEELAVCQYKAKTQSVDFQHKTLEAVGQVNSWVEQVTTGLIKQILPPGSVDNTTKLILGNALYFKGAWDQKFDESNTKCDSFHLLDGSSIQTQFMSSTKKQYISSSDNLKVLKLPYAKGHDKRQFSMYILLPGAQDGLWSLAKRLSTEPEFIENHIPKQTVEVGRFQLPKFKISYQFEASSLLRALGLQLPFSEEADLSEMVDSSQGLEISHVFHKSFVEVNEEGTEAGAATVAMGVAMSMPLKVDLVDFVANHPFLFLIREDIAGVVVFVGHVTNPLISA

Columns and labels:
[1] = target: β-amylase WT (barley (Hordeum vulgare) cv. Harrington) (UniProt P16098); assay: MST; β-amylase labelled with an NHS-ester fluorescent dye (70 nM), unlabelled serpin Z4 from 40 μM to 1 nM; PBS with 0.1% Tween-20; Monolith NT.115; three replicates combined
[2] = target: β-amylase WT (barley (Hordeum vulgare) cv. Harrington) (UniProt P16098)
[3] = target: β-amylase WT (barley (Hordeum vulgare) cv. Harrington) (UniProt P16098); remark: listed apart in the source
[4] = target: β-amylase WT (barley (Hordeum vulgare) cv. Harrington) (UniProt P16098); remark: listed apart in the source
[5] = target: β-amylase WT (barley (Hordeum vulgare) cv. Harrington) (UniProt P16098); assay: SPR; β-amylase immobilised by amine coupling on a CM5 chip, serpin Z4 injected at 0.6, 0.5, 0.4, 0.3 and 0.2 μM; PBS; Biacore T200

| Binder | inhibition factor X inh from the residual peptidase activity of chymotrypsin on casein, serpin:protease 2:1 (chymotrypsin) | Kd [1] | EC50 of serpin Z4 for the enhancement of β-amylase activity, Betamyl-3 method [2] | EC50 of serpin Z4 for the enhancement of β-amylase activity, DNSA method [2] | Vmax of β-amylase with serpin Z4 at a 1:5 molar ratio (Lineweaver-Burk), with or without DTT [3] | β-amylase activity (DNSA) over 37-62°C with serpin Z4 at 1:5; at 50°C against β-amylase alone at optimal temperatures [4] | Kd [5] |
| --- | --- | --- | --- | --- | --- | --- | --- |
| B1 | 0.88 |  |  |  |  |  |  |
| B2 |  | 200 nM | 180 nM | 300 nM | 2 fold | 60% | 142 nM |
